System: phiFSW integrase (Int) (Lactobacillus casei temperate phage phiFSW)
Test: cell_activity

For attB (L. casei YIT9029), the activity (transformants/ug DNA) (chromosomal attB as integration site, attB lost and attL/attR formed in all analysed transformants, in vivo, no direct binding measured) was 1000.
attP (phiFSW) was tested, and the activity (transformants/ug DNA) (pMSK742 integration into YIT9029 chromosome via attP x attB, no transformants when int region deleted, attL and attR confirmed by PCR, Southern and sequencing) was 1000.

— patent US6319692
